Laboratory results reported in patent publication US20080044421A1.

Target: CD20 (human) (UniProt P11836)
Assay: FACS on Ramos, Daudi, Raji and BJAB B lymphoma cells; range over four cell lines

Chain of UniProt P11836 (P11836 whole entry): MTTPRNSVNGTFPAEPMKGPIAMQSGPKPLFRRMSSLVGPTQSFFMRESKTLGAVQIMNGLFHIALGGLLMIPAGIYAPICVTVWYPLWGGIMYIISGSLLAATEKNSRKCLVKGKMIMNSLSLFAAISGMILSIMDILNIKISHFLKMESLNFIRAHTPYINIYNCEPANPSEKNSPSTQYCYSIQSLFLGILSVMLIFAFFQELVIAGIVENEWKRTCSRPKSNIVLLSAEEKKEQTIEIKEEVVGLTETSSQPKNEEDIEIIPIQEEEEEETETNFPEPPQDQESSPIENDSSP

Which mean fluorescence shift does the source give for “RITUXAN (rituximab), monoclonal antibody specific for CD20” here?
Its mean fluorescence shift is 5 to 15 units.
